Experimental data as given in US20150071927A1 (UNIVERSITY OF HONG KONG, published 2015).

B1: m590 anti-IGF-IR mouse/human chimeric antibody (antibody, human IgG1, kappa, V domains shown)
VH: EVQLQQSGPELEQPGSSVKISCKASGYSFTAYYMHWVKQSHGKSLEWIGRINPDNGGNSYNQKFKGKAILTVDKSSNTAYMELRSLTSEDSAVYYCAKSTSYDYDGYWYFDVWGAGTTVTVSS
VL: QIVLTQSPAIMSASPGEKVTITCSASSSVSYIHWFQQKPGTSPKVWIYGTSNLASGVPARFTGSGSGTSYSLTISRMEAEDAATYYCQQRSSYPFTFGSGTKLEIKR
notes: also called human/mouse chimeric mAb m590
B2: anti-HER2/anti-IGF-IR bi-specific antibody (Bi-Ab) (bispecific antibody, human IgG1, kappa)
heavy 1: not shown
light 1: not shown
heavy 2: not shown
light 2: QIVLTQSPAIMSASPGEKVTITCSASSSVSYIHWFQQKPGTSPKVWIYGTSNLASGVPARFTGSGSGTSYSLTISRMEAEDAATYYCQQRSSYPFTFGSGTKLEIKRTVAAPSVFIFPPSDEQLKSGTASVVCLLNNFYPREAKVQWKVDNALQSGNSQESVTEQDSKDSTYSLSSTLTLSKADYEKHKVYACEVTHQGLSLPVTKSLNRREC
notes: also called anti-IGF-IR/anti-HER2 hybrid IgG; copies: 1 + 1 + 1 + 1

Tests used:
[1] = biological target: T1, membrane-associated IGF-IR on SKOV-3 cells (human, UniProt P08069 31-936); experiment: flow cytometry on SKOV-3 cells, MFI against antibody concentration
T1 sequence (P08069 31-936 limits assumed): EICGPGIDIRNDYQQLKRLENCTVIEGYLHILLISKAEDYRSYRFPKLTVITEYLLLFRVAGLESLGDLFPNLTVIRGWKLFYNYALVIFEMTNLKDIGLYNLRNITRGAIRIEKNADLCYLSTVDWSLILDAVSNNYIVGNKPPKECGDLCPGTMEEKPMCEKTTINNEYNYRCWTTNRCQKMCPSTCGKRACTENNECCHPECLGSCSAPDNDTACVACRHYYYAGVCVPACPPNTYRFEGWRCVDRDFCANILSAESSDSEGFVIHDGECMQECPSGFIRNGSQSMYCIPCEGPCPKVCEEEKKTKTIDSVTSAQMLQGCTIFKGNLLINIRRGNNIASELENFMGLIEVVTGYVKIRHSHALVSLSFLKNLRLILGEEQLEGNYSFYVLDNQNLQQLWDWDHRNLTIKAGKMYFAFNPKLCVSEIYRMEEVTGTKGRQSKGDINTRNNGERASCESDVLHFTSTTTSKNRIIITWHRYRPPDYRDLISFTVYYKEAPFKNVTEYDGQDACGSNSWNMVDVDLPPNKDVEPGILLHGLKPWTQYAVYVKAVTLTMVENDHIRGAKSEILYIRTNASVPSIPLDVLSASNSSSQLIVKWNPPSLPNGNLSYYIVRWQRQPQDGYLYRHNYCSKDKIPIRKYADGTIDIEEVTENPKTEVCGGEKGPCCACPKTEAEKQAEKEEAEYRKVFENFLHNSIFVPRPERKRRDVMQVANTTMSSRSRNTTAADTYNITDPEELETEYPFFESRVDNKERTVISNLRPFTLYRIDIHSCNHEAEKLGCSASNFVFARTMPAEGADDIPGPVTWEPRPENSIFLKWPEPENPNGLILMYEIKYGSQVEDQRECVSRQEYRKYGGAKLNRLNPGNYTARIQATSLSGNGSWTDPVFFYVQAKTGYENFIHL
Description: (§1) MCF-7 or SKOV-3 cells were detached using enzyme-free cell-disassociation buffer (Invitrogen), washed twice with PBS, and incubated at 4° C. for 2 h with antibodies in fluorescence-activated cell sorting (FACS) buffer (1% FBS in PBS). Cell surface bound antibodies were detected using PE conjugated to anti-human Fc by incubation at 4° C. for 1 h followed by washing twice with FACS buffer and fixation with 2% paraformaldehyde in FACS buffer. The stained cells were analyzed with a BD flow cytometer and FlowJo software.

[2] = biological target: T2, recombinant IGF-IR ectodomain (His-tagged) (human, UniProt P08069 31-935); experiment: indirect ELISA, IGF-IR ectodomain coated, biotinylated HER2 ectodomain detected with streptavidin-HRP
T2 construct: also called recombinant IGF-IR (coated); recombinant IGF-IR ectodomains
T2 sequence (P08069 31-935): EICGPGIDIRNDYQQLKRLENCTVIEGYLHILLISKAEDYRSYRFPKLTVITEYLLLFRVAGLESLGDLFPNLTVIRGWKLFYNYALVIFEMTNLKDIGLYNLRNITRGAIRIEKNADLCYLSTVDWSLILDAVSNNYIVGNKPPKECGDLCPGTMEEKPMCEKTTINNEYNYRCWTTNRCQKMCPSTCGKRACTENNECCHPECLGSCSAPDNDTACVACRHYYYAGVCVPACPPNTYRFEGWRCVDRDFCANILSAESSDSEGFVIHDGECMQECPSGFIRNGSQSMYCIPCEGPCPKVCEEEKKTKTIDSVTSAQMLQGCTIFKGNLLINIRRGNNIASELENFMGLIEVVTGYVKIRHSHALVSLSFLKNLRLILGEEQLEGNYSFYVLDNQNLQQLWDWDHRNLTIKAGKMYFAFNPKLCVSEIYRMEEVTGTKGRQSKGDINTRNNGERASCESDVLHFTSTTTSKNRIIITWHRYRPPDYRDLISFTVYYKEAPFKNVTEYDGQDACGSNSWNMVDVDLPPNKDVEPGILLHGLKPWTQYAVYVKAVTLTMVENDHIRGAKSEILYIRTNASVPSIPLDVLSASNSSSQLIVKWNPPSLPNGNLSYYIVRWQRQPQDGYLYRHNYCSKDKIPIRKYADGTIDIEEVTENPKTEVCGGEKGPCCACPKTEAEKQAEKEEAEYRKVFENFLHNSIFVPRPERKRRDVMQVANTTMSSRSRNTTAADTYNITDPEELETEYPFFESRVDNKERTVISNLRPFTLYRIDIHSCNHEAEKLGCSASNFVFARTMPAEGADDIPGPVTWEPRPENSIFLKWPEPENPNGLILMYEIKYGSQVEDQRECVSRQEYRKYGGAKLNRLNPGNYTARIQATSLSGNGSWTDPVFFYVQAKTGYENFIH
Description: Recombinant ectodomains of IGF-IR or HER2 ([…] in both cases) were coated on 96-well high-binding ELISA plates at 4° C. overnight. The plates were washed and blocked with 3% BSA in PBS at 37° C. for 2 h. Two-fold serially diluted mAb Herceptin or m590 were added to the wells and the bound mAbs were detected by HRP conjugated anti-human Fc as secondary antibody and TMB substrate. Optical density at 450 nm (OD450 nm) was measured after color development at RT for 30 min. In the case of Bi-Ab, recombinant IGF-IR ectodomains were coated on the plates. Following addition of 2-fold serially diluted Bi-Ab and incubation at RT for 2 h, plates were washed and biotinylated HER2 ectodomain (2 μg/ml) was added to each well. Bound HER2 ectodomains were detected by HRP conjugated streptavidin and TMB substrate.
Following addition of the anti-HER2/anti-IGF-IR antibodies to recombinant IGF-IR-coated plates biotinylated recombinant HER2 ectodomains were added. Bound HER2 ectodomains were detected by HRP conjugated streptavidin and TMB substrate.

[3] = biological target: T1, membrane-associated IGF-IR on SKOV-3 …; experiment: flow cytometry on SKOV-3 cells
Description: as §1

Binder	binding result [1]	binding result [2]	binding result [3]
B1	binds		
B2		binds	binds
